Measured values reported in patent publication US12018068B2, “Anti-O1 antibodies and uses thereof” (priority 2016, dated 2024).

Key:
[1] = tested on: Klebsiella pneumoniae of the LPS-O1 serotype; assay: primary screening, binding to whole bacteria
Description: KPA27 and KPE33 were isolated from the peripheral blood of two different immune donors: #487 and #262, respectively. […] KPA27 and KPE33 were isolated from immune donors as IgG2 antibodies.
KPB202 and KPJ4 were isolated from tonsillar B cells of two different donors: T6 (KPB202) and T8 (KPJ4). […] KPB202 and KPJ4 were isolated from donors as IgG1 and IgG2 antibodies, respectively.

[2] = biological target: LPS (O1); assay: LPS neutralization assay, RAW264.7-lux NF-κB luciferase reporter; type: cell-based, murine
Description: LPS neutralization was assayed by utilizing a murine RAW264.7 macrophage cell line carrying a firefly luciferase reporter gene under the control of an NF-κB-responsive promoter (RAW264.7-lux). Serially diluted antibody stocks were mixed with LPS in a 1:1 ratio and incubated at 4° C. for 1 hr. Antibody/LPS mixture was then diluted 1:10 into assay plates containing pre-seeded RAW264.7-lux cells (5e3 cells/well), which were then placed at 37° C./5% CO2 for 2.5 hours. Following incubations, Steady Glo (Promega) was then added to each well and incubated for another 20 min protected from light. The relative light units (RLUs) were then measured using an Envision Multilabel plate reader (Perkin Elmer). The percentage of inhibition was determined by comparing RLU derived from assays with no antibodies to RLU obtained from anti-K. pneumoniae mAbs and a negative control mAb. Activation of TLR4 receptors by bacterial LPS leads to downstream activation of the NF-κB transcriptional regulator. A decrease in induction of NF-κB-responsive luciferase activity was used to quantify LPS neutralization activity by LPS mAbs.

[3] = tested on: K. pneumoniae capsule mutant strain 43816ΔcpsB Lux; assay: bioluminescent opsonophagocytic killing (OPK) assay with HL-60 cells; type: cell-based, Klebsiella pneumoniae; settings: for induction of OPK killing: FIG. 1C
Description: (§1) PBMC donors were ranked based on their binding titers as well as their SBA and OPK activity. OPK assays were performed as described with modifications (Wang, Q. et al. Target-Agnostic Identification of Functional Monoclonal Antibodies Against Klebsiella pneumoniae Multimeric MrkA Fimbrial Subunit J Infect Dis. 2016 Jun. 1; 213(11):1800-8). Briefly, log phase cultures of luminescent K. pneumoniae capsule mutant strain 43816ΔcpsB (43816ΔcpsB Lux) were diluted to ˜2×10^6 cells/ml. Bacteria, diluted baby rabbit serum providing complement (Cedarlane, pre-absorbed with Kp43816ΔcpsB, 1:10), dimethylformamide (DMF) differentiated HL-60 cells, and sera were mixed in 384-well plates and incubated at 37° C. for two hours with shaking (250 rpm). The relative light units (RLUs) were then measured using an Envision Multilabel plate reader (Perkin Elmer). The percentage of killing was determined by comparing RLU derived from assays with no antibodies to RLU obtained from human sera.
as §1, with “OPK” for “PBMC donors were ranked based on their binding titers as well as their SBA and OPK activity. OPK”, “al., J. Infect.” for “al. Target-Agnostic Identification of Functional Monoclonal Antibodies Against Klebsiella pneumoniae Multimeric MrkA Fimbrial Subunit J Infect”, “213:1800-8 (2016)).” for “2016 Jun. 1; 213(11):1800-8).”, “antibodies” for “sera”, “anti-K. pneumoniae mAbs and a negative control mAb.” for “human sera.”

[4] = tested on: purified O1 LPS; assay: ELISA binding to purified O1 LPS; set-up: species or system Klebsiella pneumoniae; settings: FIG. 1A
Description: Binding to purified O1 LPS was assayed by standard ELISA method. Briefly, ELISA plates (Nunc MaxiSorp) were coated with purified O1 LPS in PBS, pH 7.2, overnight at 4 C, followed by blocking the plates with PBS supplemented with 1% BSA (PBS-B). The coated plates were incubated with series dilutions of monoclonal antibodies for 1 h at room temperature. The plates were then washed with PBS containing 0.1% Tween-20 (PBS-T) before HRP-conjugated anti-human secondary antibodies were added for 1 hour followed by TMB TMB (3,3′,5,5′-Tetrametheylbenzidine) substrates. The absorbance of 450 nm was measured by microplate reader (Molecular Devices) and the data were plotted with Prism software.

[5] = tested on: K. pneumoniae strain Kp4211 lux; assay: high throughput serum bactericidal assay (SBA), complement-dependent killing; type: cell-based, Klebsiella pneumoniae; settings: for complement-dependent killing in SBA: FIG. 1B; for complement-dependent killing (SBA) in primary screening: strain Kp4211 (LPS-O1)
Description: Peripheral blood mononuclear cells (PBMC) and sera were separated from buffy coats from healthy blood donors (N=567). PMBC were stored in liquid nitrogen whereas the plasma was stored at 4° C. To identify Klebsiella pneumoniae immune donors, all the available sera were tested for binding to Kp43816 and Kp4211 (LPS-O1 serotype), as well as to the unencapsulated mutant strain Kp43816ΔcpsB and the double mutant Kp43816ΔcpsBΔwaaL. […] In addition, all available sera were tested for their bactericidal activity in the presence of complement using a high-throughput serum bactericidal assay (SBA assay). Overnight cultures of luminescent K. pneumoniae strain 4211 (lux) were diluted in Muller Hinton II media to make OD600 to be 0.003. Equal volume of sera, 4211 lux, and baby rabbit serum (Cedarlane) were mixed in 384 well plates and incubated at 37° C. for two hours with shaking (250 rpm). The relative light units (RLUs) were then measured using an Envision Multilabel plate reader (Perkin Elmer). The percentage of killing was determined by comparing RLU derived from assays with no antibodies to RLU obtained from human sera.
The susceptibility of the K. pneumoniae strain Kp4211 lux to serum and antibody dependent killing was measured by high throughput serum bactericidal assay (SBA). Overnight cultures of luminescent K. pneumoniae strain 4211 (lux) were diluted in Muller Hinton II media to make OD600 to be 0.003. Equal volume of antibodies, 4211 lux, and baby rabbit serum (Cedarlane) were mixed in 384 well plates and incubated at 37° C. for two hours with shaking (250 rpm). The relative light units (RLUs) were then measured using an Envision Multilabel plate reader (Perkin Elmer). The percentage of killing was determined by comparing RLU derived from assays with no antibodies to RLU obtained from anti-K. pneumoniae mAbs and a negative control mAb.

[6] = biological target: O1 LPS; assay: Octet binding affinity to O1 LPS; set-up: species or system Klebsiella pneumoniae; settings: average, from on-rate and off-rate, read-out: affinity constant (KD) to O1 LPS
Description: In order to reduce potential sequence liabilities for antibody development including potential immunogenicity due to anti-drug antibodies, an unpaired Cysteine in the light chain CDR3 of KPE33 was exchanged with Threonine (T), and somatic mutations in the frameworks 1, 2, and 4 of KPE33 were replaced with germ line residues (as summarized in FIG. 5). CDRs were maintained as wildtype, except for the C107T substitution described above. The optimized KPE33 was named KPE33v2016. […] This platform provides a powerful tool to measure the rate of biomolecular complex formation and complex stability in a more biologically meaningful setting. Briefly, Protein A coated sensors were coated with 2 μg/mL O1 LPS for 10 minutes before being dipped into solution containing 0.2 μg/mL anti-O1 LPS mAbs in Kinetics buffer (ForteBio, dilute 10× to 1× with PBS). Changes in the number of molecules bound to the biosensor caused a shift in the interference pattern that was recorded in real time. […] The affinity constant (KD) of KPE33 and KPE33v2016 to O1 LPS was calculated based on the on-rate and off-rate from Octet sensorgram.
KPE33v2016 was further optimized, thereby creating two new variants—KPE33 H32+L2016(1EQ) and KPE33 H33+L2016(1EQ). Both of these variants contain a Methionine to Isoleucine mutation adjacent to CDRH1, a Tryptophan to Tyrosine mutation in CDRH2, an Aspartate to Glutamate mutation adjacent to CDRH2, Asparagine to Glutamine and Methionine to Leucine mutations in FRH3 and an Aspartate to Asparagine mutation in CDRH3. In addition, KPE33 H32+L2016(1EQ) had four FRH3 residues changed to the germ-line residues, whereas KPE33 H33+L2016(1EQ) only has three of the same FRH3 residues changed to the germ-line. Both of these variants contain the same light chain as KPE33v2016, but with a single Glutamate to Glutamine mutation in residue 1.

B1: KPB202: human anti-O1 antigen antibody from tonsillar B cells, VH SEQ ID NO:39, VL SEQ ID NO:40, IgG1 (antibody, V domains shown)
VH: EVQLVESGGGLVQPGGSLSLSCAASGFTFSNFWVGWGRQAPGKGLEWVANINPDGSEKYYVDSVKGRVTISRDNAKNSLSLQMNSLRVEDAAVYYCARLGPFHPDCWGQGTLVTVSS
VL: DVVMTQSPLSLPVTLGQPASISCRSSQSLVHSDGNTYLNWFQQRPGQSPRRLIYEVSNRDSGVPDRFSGSGSGTDFTLKISRVEAEDIGVYYCMQGTHWPWTFGQGTKVEIK
modifications: KPB202 VH Amino Acid Sequence; KPB202 VL Amino Acid Sequence
Q: B1 was tested. Which “binding to bacteria in primary screening” value [1] did it give?
A: bind to Klebsiella pneumoniae of the LPS-O1 serotype

Q: And the “LPS Neut (O1) IC50” value [2]?
A: 0.038 µg/mL

Q: And the LPS neutralization [2]?
A: neutralized LPS

Q: What about the “D Capsule OPK IC50” value [3] of the same molecule?
A: 0.0009 µg/mL

Q: And the “induction of OPK killing” value [3]?
A: induced OPK killing

Q: What about the “binding to purified O1 LPS” value [4] of the same molecule?
A: bound to purified O1 LPS

Q: And the “SBA Kp4211lux IC50” value [5]?
A: 0.0006 µg/mL

Q: What about the “complement-dependent killing in SBA” value [5] of the same molecule?
A: kill K. pneumoniae via complement-dependent killing

Q: What about the “complement-dependent killing (SBA) in primary screening” value [5] of the same molecule?
A: mediate complement-dependent killing

B2: KPA27: human anti-O1 antigen antibody, VH SEQ ID NO:21, VL SEQ ID NO:22, isolated as IgG2 (antibody, V domains shown)
VH: QVQLVQSGAEVKKPGASVKVSCKASENTFNDFYMHWVRQAPGQGLEWMGWIHPDGVVTNYAQKFQGRVTMTRDTSINTVYMELNGLISDDTAVYYCMRDGPGSEGSWFDYWGQGTLVTVSS
VL: DIQMTQSPSTLSASVGDRVTITCRASQPVSNRLAWYQQKPGRAPTLLIYKASTLQSGVPLRFSGSGSGTEFTLTISSLQSDDFATYYCQQSQTFGQGTKVEIK
modifications: KPA27 VH Amino Acid Sequence; KPA27 VL Amino Acid Sequence
Q: For B2, which “binding to bacteria in primary screening” value [1] is on record?
A: bind to Klebsiella pneumoniae of the LPS-O1 serotype

Q: And the LPS neutralization [2]?
A: did not

Q: What about the “D Capsule OPK IC50” value [3] of the same molecule?
A: 0.67 µg/mL

Q: And the “induction of OPK killing” value [3]?
A: induced OPK killing

Q: What about the “binding to purified O1 LPS” value [4] of the same molecule?
A: bound to purified O1 LPS

Q: And the “SBA Kp4211lux IC50” value [5]?
A: 1.625 µg/mL

Q: What about the “complement-dependent killing in SBA” value [5] of the same molecule?
A: kill K. pneumoniae via complement-dependent killing

Q: What about the “complement-dependent killing (SBA) in primary screening” value [5] of the same molecule?
A: mediate complement-dependent killing

B3: KPJ4: human anti-O1 antigen antibody from tonsillar B cells, VH SEQ ID NO:30, VL SEQ ID NO:31, IgG2 (antibody, V domains shown)
VH: QVQLQQSGPGLVRPSQTLSLTCAISGDSVSSNTAAWNWIRQSPSRGLEWLGRTYYRSEWYNDYAVSVKSRITINPDTSKNQFSLQLNSVTPEDTAVYYCARISWNDLPAWGQGTLVTVSS
VL: DIVMTQSPDSLAVSLGERATINCKSSQSILYSSHNKNYLAWYQQKPGQPPKVLIYWASTRESGVPDRFSGSGSGTDFTLTISNLQAEDVAVYYCQQYCNIPYTFGQGTKLEIK
modifications: IgG2 constant regions; KBJ4 VH Amino Acid Sequence; KPJ4 VL Amino Acid Sequence
Q: Which results are given for B3?
A: binding to bacteria in primary screening [1]: bind to Klebsiella pneumoniae of the LPS-O1 serotype; LPS neutralization [2]: did not; D Capsule OPK IC50 [3]: 0.011 µg/mL; induction of OPK killing [3]: induced OPK killing; binding to purified O1 LPS [4]: bound to purified O1 LPS; SBA Kp4211lux IC50 [5]: 0.11 µg/mL; complement-dependent killing in SBA [5]: kill K. pneumoniae via complement-dependent killing; complement-dependent killing (SBA) in primary screening [5]: mediate complement-dependent killing

B4: KPE33V2016: sequence optimized KPE33, VH SEQ ID NO:12, VL SEQ ID NO:13 (antibody, V domains shown)
VH: EVQLVESGGGLVQPGRSLRLSCAASGFIFDDYAMHWVRQAPGKGLEWVSGIAWKSGATNYADSVKGRFAISRDNSKKSMYLQMNSLGTEDTALYYCTRRRASGDDTFYYFDYWGQGTLVTVSS
VL: EIVLTQSPATLSLSPGERATLSCRASQNVNTNLAWYQQKPGQAPRLLIYDASNRATGIPARFSGSGSGTDFTLTISSLEPEDFAVYYCQQTTNWRYTFGQGTKLEIK
modifications: KPE33V2016 VH Amino Acid Sequence; KPE33V2016 VL Amino Acid Sequence
Q: With B4 as the molecule, how does the Kd [6] read?
A: 4.13 nM
